Like-named read-outs stand apart in the source and are kept apart here.

The chains are these.
B1: FLAG-hRad1 (natural protein, human, UniProt O60671 1-282, looked up)
chain: MPLLTQQIQDEDDQYSLVASLDNVRNLSTILKAIHFREHATCFATKNGIKVTVENAKCVQANAFIQAGIFQEFKVQEESVTFRINLTVLLDCLSIFGSSPMPGTLTALRMCYQGYGYPLMLFLEEGGVVTVCKINTQEPEETLDFDFCSTNVINKIILQSEGLREAFSELDMTSEVLQITMSPDKPYFRLSTFGNAGSSHLDYPKDSDLMEAFHCNQTQVNRYKISLLKPSTKALVLSCKVSIRTDNRGFLSLQYMIRNEDGQICFVEYYCCPDEEVPESES

The target in experiment [1] is GST-hNEIL1 (residues 1–390) (human, UniProt Q96FI4 1-390). Put plainly: pull-down.
Sequence of GST-hNEIL1 (residues 1–390) (Q96FI4 whole entry, the tested form may be a part): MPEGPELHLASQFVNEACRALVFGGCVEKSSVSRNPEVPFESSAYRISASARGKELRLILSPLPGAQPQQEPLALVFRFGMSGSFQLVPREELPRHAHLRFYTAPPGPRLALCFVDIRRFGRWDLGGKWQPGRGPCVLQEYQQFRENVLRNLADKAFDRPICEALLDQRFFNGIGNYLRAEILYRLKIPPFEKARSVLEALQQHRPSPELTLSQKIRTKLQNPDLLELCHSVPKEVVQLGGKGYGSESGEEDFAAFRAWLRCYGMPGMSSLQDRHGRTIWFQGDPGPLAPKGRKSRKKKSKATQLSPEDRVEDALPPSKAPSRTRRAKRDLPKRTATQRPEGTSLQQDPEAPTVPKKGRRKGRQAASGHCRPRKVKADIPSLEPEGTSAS
The next experiment has as its target T1, FLAG-hRad9 (human, UniProt Q99638 1-391).
T1 sequence (looked up): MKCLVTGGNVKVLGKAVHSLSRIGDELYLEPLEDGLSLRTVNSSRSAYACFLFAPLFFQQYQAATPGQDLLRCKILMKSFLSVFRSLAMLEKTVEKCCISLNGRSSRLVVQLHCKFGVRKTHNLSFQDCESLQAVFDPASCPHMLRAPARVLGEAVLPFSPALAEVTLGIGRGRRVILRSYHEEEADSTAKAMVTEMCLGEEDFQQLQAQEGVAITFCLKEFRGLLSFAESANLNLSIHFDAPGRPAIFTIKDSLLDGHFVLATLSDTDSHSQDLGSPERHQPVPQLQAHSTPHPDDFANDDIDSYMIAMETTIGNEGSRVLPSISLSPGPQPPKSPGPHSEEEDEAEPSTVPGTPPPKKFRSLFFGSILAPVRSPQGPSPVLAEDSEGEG
Put plainly: SEC.

Experiment [2] concerns the target T2, hNEIL1-CΔ40 (residues 2–350) (human, UniProt Q96FI4 2-350). Put plainly: pull-down.
The target of experiment [3] is T3, processed intact hNEIL1 (residues 2–390) (human, UniProt Q96FI4 2-390). Put plainly: pull-down.
T3 sequence (Q96FI4 2-390): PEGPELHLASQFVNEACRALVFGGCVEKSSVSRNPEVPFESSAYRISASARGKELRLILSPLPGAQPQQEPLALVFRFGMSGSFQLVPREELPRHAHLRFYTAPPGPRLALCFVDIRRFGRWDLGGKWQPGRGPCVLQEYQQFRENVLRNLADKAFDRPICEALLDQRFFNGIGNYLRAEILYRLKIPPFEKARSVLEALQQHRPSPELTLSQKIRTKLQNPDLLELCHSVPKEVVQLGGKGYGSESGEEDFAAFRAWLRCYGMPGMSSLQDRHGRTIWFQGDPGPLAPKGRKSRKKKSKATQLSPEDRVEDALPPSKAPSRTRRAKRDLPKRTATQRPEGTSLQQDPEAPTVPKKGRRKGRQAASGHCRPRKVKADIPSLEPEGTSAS
Experiment [4] concerns the target T2, hNEIL1-CΔ40 (residues 2–350). Put plainly: pull-down. The source holds these as a separate data set.
For experiment [5], the target named is T3, processed intact hNEIL1 (residues 2–390). Put plainly: pull-down. The source holds these as a separate data set.
The experiment “FLAG-hRad1” addresses B1. Kind of experiment: SEC.

T2 sequence (Q96FI4 2-350, stated change not applied): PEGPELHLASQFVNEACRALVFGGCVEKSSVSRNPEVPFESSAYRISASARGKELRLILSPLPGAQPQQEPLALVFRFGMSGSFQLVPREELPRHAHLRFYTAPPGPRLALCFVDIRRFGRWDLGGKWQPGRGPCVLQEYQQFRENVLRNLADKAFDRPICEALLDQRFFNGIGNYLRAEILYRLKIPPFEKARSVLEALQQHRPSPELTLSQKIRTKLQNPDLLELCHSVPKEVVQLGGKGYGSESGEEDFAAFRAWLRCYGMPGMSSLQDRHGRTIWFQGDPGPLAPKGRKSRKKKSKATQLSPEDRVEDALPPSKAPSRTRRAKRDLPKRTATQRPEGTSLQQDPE

B1: the binding result (in experiment [1]; in the experiment with FLAG-hRad9) was “binds” in each case.

B2: GST-hRad1 (natural protein, human, UniProt O60671 1-282, looked up)
chain: MPLLTQQIQDEDDQYSLVASLDNVRNLSTILKAIHFREHATCFATKNGIKVTVENAKCVQANAFIQAGIFQEFKVQEESVTFRINLTVLLDCLSIFGSSPMPGTLTALRMCYQGYGYPLMLFLEEGGVVTVCKINTQEPEETLDFDFCSTNVINKIILQSEGLREAFSELDMTSEVLQITMSPDKPYFRLSTFGNAGSSHLDYPKDSDLMEAFHCNQTQVNRYKISLLKPSTKALVLSCKVSIRTDNRGFLSLQYMIRNEDGQICFVEYYCCPDEEVPESES
As for B2, the binding result in experiment [2] and in experiment [3] was “binds” each time.

B3: GST-hHus1 (natural protein, human, UniProt O60921 1-280, looked up)
chain: MKFRAKIVDGACLNHFTRISNMIAKLAKTCTLRISPDKLNFILCDKLANGGVSMWCELEQENFFNEFQMEGVSAENNEIYLELTSENLSRALKTAQNARALKIKLTNKHFPCLTVSVELLSMSSSSRIVTHDIPIKVIPRKLWKDLQEPVVPDPDVSIYLPVLKTMKSVVEKMKNISNHLVIEANLDGELNLKIETELVCVTTHFKDLGNPPLASESTHEDRNVEHMAEVHIDIRKLLQFLAGQQVNPTKALCNIVNNKMVHFDLLHEDVSLQYFIPALS
B3: the binding result in experiment [2] and in experiment [3] was “binds” throughout.

B4: His-tagged hHus1 (natural protein, human, UniProt O60921 1-280, looked up)
chain: MKFRAKIVDGACLNHFTRISNMIAKLAKTCTLRISPDKLNFILCDKLANGGVSMWCELEQENFFNEFQMEGVSAENNEIYLELTSENLSRALKTAQNARALKIKLTNKHFPCLTVSVELLSMSSSSRIVTHDIPIKVIPRKLWKDLQEPVVPDPDVSIYLPVLKTMKSVVEKMKNISNHLVIEANLDGELNLKIETELVCVTTHFKDLGNPPLASESTHEDRNVEHMAEVHIDIRKLLQFLAGQQVNPTKALCNIVNNKMVHFDLLHEDVSLQYFIPALS
In the case of B4, the binding result in experiment [4] and in experiment [5] was “binds” throughout.

B5: FLAG-hHus1 (natural protein, human, UniProt O60921 1-280, looked up)
chain: MKFRAKIVDGACLNHFTRISNMIAKLAKTCTLRISPDKLNFILCDKLANGGVSMWCELEQENFFNEFQMEGVSAENNEIYLELTSENLSRALKTAQNARALKIKLTNKHFPCLTVSVELLSMSSSSRIVTHDIPIKVIPRKLWKDLQEPVVPDPDVSIYLPVLKTMKSVVEKMKNISNHLVIEANLDGELNLKIETELVCVTTHFKDLGNPPLASESTHEDRNVEHMAEVHIDIRKLLQFLAGQQVNPTKALCNIVNNKMVHFDLLHEDVSLQYFIPALS
In the case of B5, the binding result (in experiment [1]; in the experiment with FLAG-hRad9; with FLAG-hRad1) was “binds” in each case.

For the origin of these results see publication PMC1885643 (Nucleic Acids Research, 2007).
